# Test results as given in IntAct's records for PubMed 27135603.
# B1: Inducible T-cell costimulator (Homo sapiens), Q9Y6W8 (parent)
# chain: MKSGLWYFFLFCLRIKVLTGEINGSANYEMFIFHNGGVQILCKYPDIVQQFKMQLLKGGQILCDLTKTKGSGNTVSIKSLKFCHSQLSNNSVSFFLYNLDHSHANYYFCNLSIFDPPPFKVTLTGGYLHIYESQLCCQLKFWLPIGCAAFVVVCILGCILICWLTKKKYSSSVHDPNGEYMFMRAVNTAKKSRLTDVTL
# B2: Inducible T-cell costimulator (Homo sapiens), Q9Y6W8 (parent)
# chain: B1 chain
# partner: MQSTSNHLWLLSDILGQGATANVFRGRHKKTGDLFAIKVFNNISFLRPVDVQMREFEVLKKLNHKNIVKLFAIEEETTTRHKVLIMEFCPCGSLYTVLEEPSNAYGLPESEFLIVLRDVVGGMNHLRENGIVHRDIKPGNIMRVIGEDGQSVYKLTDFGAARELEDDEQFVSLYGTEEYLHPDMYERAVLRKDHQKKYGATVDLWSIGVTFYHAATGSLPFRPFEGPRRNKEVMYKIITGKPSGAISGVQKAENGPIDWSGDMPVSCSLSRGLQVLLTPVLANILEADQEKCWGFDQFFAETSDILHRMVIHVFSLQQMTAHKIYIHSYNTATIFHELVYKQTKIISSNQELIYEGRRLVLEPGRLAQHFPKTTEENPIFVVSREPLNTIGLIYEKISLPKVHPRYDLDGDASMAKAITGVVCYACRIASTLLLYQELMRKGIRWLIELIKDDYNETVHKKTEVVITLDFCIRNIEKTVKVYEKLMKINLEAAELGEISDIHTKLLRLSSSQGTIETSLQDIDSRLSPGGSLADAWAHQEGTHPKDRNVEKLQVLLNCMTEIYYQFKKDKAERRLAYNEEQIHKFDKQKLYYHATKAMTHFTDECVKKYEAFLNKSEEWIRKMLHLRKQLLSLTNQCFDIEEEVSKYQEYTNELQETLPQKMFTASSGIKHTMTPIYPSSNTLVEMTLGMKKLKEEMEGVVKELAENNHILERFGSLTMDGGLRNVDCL
# B3: TNF receptor-associated factor 3 (Homo sapiens), Q13114 (parent)
# chain: MESSKKMDSPGALQTNPPLKLHTDRSAGTPVFVPEQGGYKEKFVKTVEDKYKCEKCHLVLCSPKQTECGHRFCESCMAALLSSSSPKCTACQESIVKDKVFKDNCCKREILALQIYCRNESRGCAEQLMLGHLLVHLKNDCHFEELPCVRPDCKEKVLRKDLRDHVEKACKYREATCSHCKSQVPMIALQKHEDTDCPCVVVSCPHKCSVQTLLRSELSAHLSECVNAPSTCSFKRYGCVFQGTNQQIKAHEASSAVQHVNLLKEWSNSLEKKVSLLQNESVEKNKSIQSLHNQICSFEIEIERQKEMLRNNESKILHLQRVIDSQAEKLKELDKEIRPFRQNWEEADSMKSSVESLQNRVTELESVDKSAGQVARNTGLLESQLSRHDQMLSVHDIRLADMDLRFQVLETASYNGVLIWKIRDYKRRKQEAVMGKTLSLYSQPFYTGYFGYKMCARVYLNGDGMGKGTHLSLFFVIMRGEYDALLPWPFKQKVTLMLMDQGSSRRHLGDAFKPDPNSSSFKKPTGEMNIASGCPVFVAQTVLENGTYIKDDTIFIKVIVDTSDLPDP
# partner: B2 partner
# B4: TNF receptor-associated factor 2 (Homo sapiens), Q12933 (parent)
# chain: MAAASVTPPGSLELLQPGFSKTLLGTKLEAKYLCSACRNVLRRPFQAQCGHRYCSFCLASILSSGPQNCAACVHEGIYEEGISILESSSAFPDNAARREVESLPAVCPSDGCTWKGTLKEYESCHEGRCPLMLTECPACKGLVRLGEKERHLEHECPERSLSCRHCRAPCCGADVKAHHEVCPKFPLTCDGCGKKKIPREKFQDHVKTCGKCRVPCRFHAIGCLETVEGEKQQEHEVQWLREHLAMLLSSVLEAKPLLGDQSHAGSELLQRCESLEKKTATFENIVCVLNREVERVAMTAEACSRQHRLDQDKIEALSSKVQQLERSIGLKDLAMADLEQKVLEMEASTYDGVFIWKISDFARKRQEAVAGRIPAIFSPAFYTSRYGYKMCLRIYLNGDGTGRGTHLSLFFVVMKGPNDALLRWPFNQKVTLMLLDQNNREHVIDAFRPDVTSSSFQRPVNDMNIASGCPLFCPVSKMEAKNSYVRDDAIFIKAIVDLTGL
# partner: B2 partner
# Variants of: B1
# Conditions: with p85a_human PIK3R1, P27986
# Chain of p85a_human PIK3R1, P27986 (P27986 whole entry): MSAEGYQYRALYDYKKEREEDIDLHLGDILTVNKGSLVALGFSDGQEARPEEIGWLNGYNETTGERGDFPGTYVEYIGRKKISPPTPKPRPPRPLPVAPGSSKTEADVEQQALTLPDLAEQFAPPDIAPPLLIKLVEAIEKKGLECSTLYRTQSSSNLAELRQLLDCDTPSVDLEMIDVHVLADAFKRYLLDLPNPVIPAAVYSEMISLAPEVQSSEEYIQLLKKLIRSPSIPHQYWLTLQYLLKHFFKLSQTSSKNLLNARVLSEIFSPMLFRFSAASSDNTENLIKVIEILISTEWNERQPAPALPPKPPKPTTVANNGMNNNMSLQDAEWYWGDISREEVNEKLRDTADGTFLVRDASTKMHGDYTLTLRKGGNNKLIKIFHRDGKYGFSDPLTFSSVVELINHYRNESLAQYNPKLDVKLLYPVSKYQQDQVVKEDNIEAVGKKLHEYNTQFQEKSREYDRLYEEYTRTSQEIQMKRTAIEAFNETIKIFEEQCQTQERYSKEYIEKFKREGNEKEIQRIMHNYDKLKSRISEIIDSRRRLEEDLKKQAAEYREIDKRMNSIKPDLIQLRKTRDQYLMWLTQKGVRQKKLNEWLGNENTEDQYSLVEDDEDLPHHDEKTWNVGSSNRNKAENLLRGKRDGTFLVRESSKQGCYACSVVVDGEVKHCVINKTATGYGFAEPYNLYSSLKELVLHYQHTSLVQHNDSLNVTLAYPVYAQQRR
row,effect of a mutation on the interaction,Variant
1,with no effect,S170A;S171A;S172A;V173A;H174A;D175A;P176A;N177A;G178A;E179A

# Variants of: B1
# Conditions: with p85a_human PIK3R1, P27986
# Remark: another data set of the same source
row,effect of a mutation on the interaction,Variant
1,disrupting interaction strength,Y180F

# Variants of: B2
# Conditions: with tbk1_human TBK1, Q9UHD2
row,effect of a mutation on the interaction,Variant
1,with no effect,Y180F

# Variants of: B2
# Conditions: with tbk1_human TBK1, Q9UHD2
# Remark: another data set of the same source
row,effect of a mutation on the interaction,Variant
1,decreasing interaction strength,S170A;S171A;S172A;V173A;H174A;D175A;P176A;N177A;G178A;E179A

# Variants of: B3
# Conditions: with tbk1_human TBK1, Q9UHD2
row,effect of a mutation on the interaction,Variant
1,decreasing interaction strength,S518A;S519A;S520A;F521A;K522A;K523A;P524A;T525A;G526A;E527A

# Variants of: B4
# Conditions: with tbk1_human TBK1, Q9UHD2
row,effect of a mutation on the interaction,Variant
1,disrupting interaction strength,S453A;S454A;S455A;F456A;Q457A;R458A;P459A;V460A;N461A;D462A
